In publication PMC5653653:

Assays:
[1] = molecular target: long Homer proteins (Homer1b/c, Homer2, and Homer3, collectively referred to as Homer) (mouse (endogenous in hippocampal neurons))
[2] = molecular target: long Homer proteins (Homer1b/c, Homer2, and Homer3, collectively referred to as Homer) (mouse (endogenous in hippocampal neurons)); remark: listed apart in the source
[3] = molecular target: long Homer proteins (Homer1b/c, Homer2, and Homer3, collectively referred to as Homer) (mouse (endogenous in hippocampal neurons)); remark: listed apart in the source

change of the mobile fraction of synaptic mGluR5 in WT neurons, TAT-mGluR5ct against TAT-mGluR5mu [1]: 12.6% | co-localized mGluR5/GluN1/Homer1-positive signals as percentage of synaptic GluN1 signal, WT neurons treated with TAT-mGluR5ct (5 µM, 1 h); increased [2]: 71.8% | co-localized mGluR5/GluN1/Homer1-positive signals as percentage of synaptic GluN1 signal, WT neurons treated with the control peptide TAT-mGluR5mu (5 µM, 1 h); no effect [2]: 61.2% | EPSCs (NMDA) amplitude (% of baseline) after DHPG (mGluR-LTD) in WT slices treated with TAT-mGluR5ct; LTD abolished [3]: 101% | EPSCs (NMDA) amplitude (% of baseline) after DHPG (mGluR-LTD) in WT slices treated with the control peptide TAT-mGluR5mu; LTD not abolished [3]: 56.6% | EPSCs (NMDA) amplitude in CA1 pyramidal neurons of WT slices treated with TAT-mGluR5ct (5 µM, 4 h); lower than untreated WT [3]: 88.1 pA | EPSCs (NMDA) amplitude in CA1 pyramidal neurons of WT slices treated with the control peptide TAT-mGluR5mu (5 µM, 4 h); not lower than untreated WT [3]: 126 pA | NMDA/AMPA ratio in CA1 pyramidal neurons of WT slices treated with TAT-mGluR5ct; reduced [3]: 0.88
Substance: Metabotropic glutamate receptor subtype 5 (mGluR5) (from UniProt Q3UVX5 19-1203)
